From patent US20240044046A1 (BIOATLA, published 2024) come the findings set out here.

In one assay the target is T1, B7H4 on T47D cells (human, UniProt Q7Z7D3 25-282).
T1 sequence (looked up): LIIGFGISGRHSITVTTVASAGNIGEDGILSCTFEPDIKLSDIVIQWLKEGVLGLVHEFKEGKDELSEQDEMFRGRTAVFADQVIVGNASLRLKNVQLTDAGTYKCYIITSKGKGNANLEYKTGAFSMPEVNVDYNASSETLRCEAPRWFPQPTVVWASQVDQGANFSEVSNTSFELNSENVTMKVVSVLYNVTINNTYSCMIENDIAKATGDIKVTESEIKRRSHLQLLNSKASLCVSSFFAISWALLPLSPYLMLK
The experiment in a line: cell-based or functional assay.

A further assay deals with T2, CD73 on MCF-7 cells (human, UniProt P21589 27-549).
T2 sequence (looked up): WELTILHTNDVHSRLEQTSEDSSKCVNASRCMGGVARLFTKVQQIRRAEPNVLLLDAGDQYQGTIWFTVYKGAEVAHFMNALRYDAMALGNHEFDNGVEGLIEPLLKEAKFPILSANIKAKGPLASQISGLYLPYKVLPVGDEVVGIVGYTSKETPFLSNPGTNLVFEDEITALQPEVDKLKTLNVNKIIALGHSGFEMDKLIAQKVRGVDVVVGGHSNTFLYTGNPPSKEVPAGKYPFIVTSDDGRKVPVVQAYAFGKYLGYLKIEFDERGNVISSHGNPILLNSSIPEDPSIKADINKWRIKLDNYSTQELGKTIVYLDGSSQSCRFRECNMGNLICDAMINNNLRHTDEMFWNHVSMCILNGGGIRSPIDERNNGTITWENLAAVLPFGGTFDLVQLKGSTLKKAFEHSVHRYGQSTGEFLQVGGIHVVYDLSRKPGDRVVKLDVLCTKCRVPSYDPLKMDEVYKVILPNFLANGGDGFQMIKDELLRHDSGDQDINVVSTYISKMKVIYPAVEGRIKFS
The experiment in a line: cell-based or functional assay.

B1: BA-091-02-04-04 (antibody, V domains shown)
VH: EVQLVQSGAEVKKPGATVKISCKVSGYTFTDRTIHWIRQSPSRGLEWLGSIYPRDGSTKYNEKFKDRVTITADKSTSTAYMELSSLRSEDTAVYYCARSVGYADDYWGQGTLVTVSS
VL: DVVMTQSPLSLPVTLGQPASISCRVSEGIDNYGFTFIHWYQQKPGKAPKLLIYRASNLQSGIPARFSGSGSGTEFTLTISSLQSEDFAVYYCQQSDKDPFTFGQGTKVEIK
B1: in the assay with B7H4 on T47D cells, the “EC50 (ng/ml), ADCC reporter bioassay, Palbociclib Isethionate-treated T47D cells, pH 6.0” value came out at 27 ng/ml; the “EC50 (ng/ml), ADCC reporter bioassay, Palbociclib Isethionate-treated T47D cells, pH 7.4” value came to 149 ng/ml; the “EC50 (ng/ml), ADCC reporter bioassay, untreated T47D cells, pH 6.0” value is 98.1 ng/ml; the “EC50 (ng/ml), ADCC reporter bioassay, untreated T47D cells, pH 7.4” value worked out at 429 ng/ml. Besides, in the assay with B7H4 on T47D cells, the “pH 7.4/pH 6.0 ratio of ADCC EC50, Palbociclib Isethionate-treated T47D cells” value came out at 5.53 ratio and the “pH 7.4/pH 6.0 ratio of ADCC EC50, untreated T47D cells” value came out at 4.37 ratio.

B2: BAP147-WT (antibody, V domains shown)
VH: EVQLLESGGGLVQPGGSLRLSCAASGFTFSSYAYSWVRQAPGKGLEWVSAISGSGGRTYYADSVKGRFTISRDNSKNTLYLQMNSLRAEDTAVYYCARLGYGRVDEWGRGTLVTVSS
VL: QSVLTQPPSASGTPGQRVTISCSGSLSNIGRNPVNWYQQLPGTAPKLLIYLDNLRLSGVPDRFSGSKSGTSASLAISGLQSEDEADYYCATWDDSHPGWTFGGGTKLTVL
For B2, in the assay with CD73 on MCF-7 cells, the “EC50 (ng/mL), ADCC reporter bioassay, Palbociclib Isethionate-treated MCF-7 cells, pH6.0” value worked out at 1.26 ng/mL; the “EC50 (ng/mL), ADCC reporter bioassay, Palbociclib Isethionate-treated MCF-7 cells, pH7.4” value was 1.16 ng/mL; the “EC50 (ng/mL), ADCC reporter bioassay, untreated MCF-7 cells, pH6.0” value (from here on “EC50 (ng/mL) … untreated MCF-7 cells, pH6.0”) turned out to be 2.17 ng/mL; the “EC50 (ng/mL), ADCC reporter bioassay, untreated MCF-7 cells, pH7.4” value (from here on “EC50 (ng/mL) … untreated MCF-7 cells, pH7.4”) stood at 1.07 ng/mL. In the assay with CD73 on MCF-7 cells, the “pH7.4/pH6.0 ratio of ADCC EC50, Palbociclib Isethionate-treated MCF-7 cells” value turned out to be 0.92 ratio and the “pH7.4/pH6.0 ratio of ADCC EC50, untreated MCF-7 cells” value was 0.49 ratio.

B3: BAP147-HC-Y101E (antibody, V domains shown)
VH: EVQLLESGGGLVQPGGSLRLSCAASGFTFSSYAYSWVRQAPGKGLEWVSAISGSGGRTYYADSVKGRFTISRDNSKNTLYLQMNSLRAEDTAVYYCARLGEGRVDEWGRGTLVTVSS
VL: QSVLTQPPSASGTPGQRVTISCSGSLSNIGRNPVNWYQQLPGTAPKLLIYLDNLRLSGVPDRFSGSKSGTSASLAISGLQSEDEADYYCATWDDSHPGWTFGGGTKLTVL
For B3, in the assay with CD73 on MCF-7 cells, the “EC50 (ng/mL), ADCC reporter bioassay, Palbociclib Isethionate-treated MCF-7 cells, pH6.0” value was 55.9 ng/mL; the “EC50 (ng/mL), ADCC reporter bioassay, Palbociclib Isethionate-treated MCF-7 cells, pH7.4” value worked out at 545 ng/mL; the “EC50 (ng/mL) … untreated MCF-7 cells, pH6.0” value was 173 ng/mL; the “EC50 (ng/mL) … untreated MCF-7 cells, pH7.4” value worked out at 100 ng/mL. Further, in the assay with CD73 on MCF-7 cells, the “pH7.4/pH6.0 ratio of ADCC EC50, Palbociclib Isethionate-treated MCF-7 cells” value came to 9.74 ratio and the “pH7.4/pH6.0 ratio of ADCC EC50, untreated MCF-7 cells” value amounted to 0.577 ratio.

B4: BAP147-LC-L051D (antibody, V domains shown)
VH: EVQLLESGGGLVQPGGSLRLSCAASGFTFSSYAYSWVRQAPGKGLEWVSAISGSGGRTYYADSVKGRFTISRDNSKNTLYLQMNSLRAEDTAVYYCARLGYGRVDEWGRGTLVTVSS
VL: QSVLTQPPSASGTPGQRVTISCSGSLSNIGRNPVNWYQQLPGTAPKLLIYDDNLRLSGVPDRFSGSKSGTSASLAISGLQSEDEADYYCATWDDSHPGWTFGGGTKLTVL
Regarding B4, in the assay with CD73 on MCF-7 cells, the “EC50 (ng/mL), ADCC reporter bioassay, Palbociclib Isethionate-treated MCF-7 cells, pH6.0” value was found to be 28.9 ng/mL; the “EC50 (ng/mL), ADCC reporter bioassay, Palbociclib Isethionate-treated MCF-7 cells, pH7.4” value amounted to 134 ng/mL; the “EC50 (ng/mL) … untreated MCF-7 cells, pH6.0” value amounted to 44.2 ng/mL; the “EC50 (ng/mL) … untreated MCF-7 cells, pH7.4” value was 106 ng/mL. In addition, in the assay with CD73 on MCF-7 cells, the “pH7.4/pH6.0 ratio of ADCC EC50, Palbociclib Isethionate-treated MCF-7 cells” value amounted to 4.62 ratio and the “pH7.4/pH6.0 ratio of ADCC EC50, untreated MCF-7 cells” value turned out to be 2.39 ratio.

B5: BA-091-00-2E2 (antibody, V domains shown)
VH: QVQLQQSDAELVKPGASVKISCKVSGYTFTDRTIHWMKQRPEQGLEWIGSIYPRDGSTKYNEKFKDKATLTADKSSSTAYMQLNSLTSEDSAVYFCARSVGYAFDYWGQGTTLTVSS
VL: DIVLTQSPASLAVSLGQRATISCRVSEGIDNYGFTFIHWYQQKPGQPPKLLIYRASNLQSGIPARFSGSGSRTDFTLTIYPVETDDVATYYCQQSDKDPFTFGSGTKLEIK
As for B5, in the assay with B7H4 on T47D cells, the “EC50 (ng/ml), ADCC reporter bioassay, Palbociclib Isethionate-treated T47D cells, pH 6.0” value worked out at 2.97 ng/ml; the “EC50 (ng/ml), ADCC reporter bioassay, Palbociclib Isethionate-treated T47D cells, pH 7.4” value worked out at 10.2 ng/ml; the “EC50 (ng/ml), ADCC reporter bioassay, untreated T47D cells, pH 6.0” value worked out at 7.55 ng/ml; the “EC50 (ng/ml), ADCC reporter bioassay, untreated T47D cells, pH 7.4” value came to 11.7 ng/ml. Also, in the assay with B7H4 on T47D cells, the “pH 7.4/pH 6.0 ratio of ADCC EC50, Palbociclib Isethionate-treated T47D cells” value was 3.41 ratio and the “pH 7.4/pH 6.0 ratio of ADCC EC50, untreated T47D cells” value amounted to 1.54 ratio.
